Columns and labels:
[1] = target: T1, 170 kD FAPα dimer (Homo sapiens, UniProt Q12884, A207P/T229K/T354R); test: Gelatin zymography with added treatments; assay type: biochemical
T1 construct: expressed in transfected cells; host or cells: 293 cells stably transfected with pFAP.38 (293-FAP)
T1 sequence (Q12884 1-760 A207P/T229K/T354R): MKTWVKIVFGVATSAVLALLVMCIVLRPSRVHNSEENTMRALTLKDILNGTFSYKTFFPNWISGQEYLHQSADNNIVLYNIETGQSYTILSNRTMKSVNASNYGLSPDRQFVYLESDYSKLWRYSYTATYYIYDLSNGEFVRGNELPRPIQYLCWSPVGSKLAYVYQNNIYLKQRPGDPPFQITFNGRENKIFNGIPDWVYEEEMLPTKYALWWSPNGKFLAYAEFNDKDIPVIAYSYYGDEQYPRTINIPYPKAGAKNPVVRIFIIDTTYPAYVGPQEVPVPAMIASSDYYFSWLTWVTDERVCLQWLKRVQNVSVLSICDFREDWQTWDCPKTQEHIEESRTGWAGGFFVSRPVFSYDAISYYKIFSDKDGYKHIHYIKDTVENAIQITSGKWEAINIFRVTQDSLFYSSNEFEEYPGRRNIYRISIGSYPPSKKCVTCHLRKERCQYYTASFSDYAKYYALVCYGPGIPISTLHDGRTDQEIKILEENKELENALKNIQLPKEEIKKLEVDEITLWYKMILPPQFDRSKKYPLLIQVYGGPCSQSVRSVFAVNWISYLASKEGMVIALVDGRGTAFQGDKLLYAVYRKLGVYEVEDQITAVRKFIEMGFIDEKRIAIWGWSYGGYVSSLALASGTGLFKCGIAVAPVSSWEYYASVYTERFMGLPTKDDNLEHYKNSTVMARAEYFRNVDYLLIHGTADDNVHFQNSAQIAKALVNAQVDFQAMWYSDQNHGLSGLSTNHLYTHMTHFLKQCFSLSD
Method: Extracts of 293-FAP cells were prepared, using an extraction buffer (0.15M NaCl, 0.05M Tris-HCl, pH 7.4, 10 mM MgCl2, 1 percent Triton X-114), were cleared by centrifugation (4,000×g, 10 minutes at 40° C.), and phase partitioned at 37° C. for 10-20 minutes. This was followed by further centrifugation (4000×g, 20 minutes at 20-25° C.) Detergent phases were diluted with buffer (0.15M NaCl, 0.05M Tris-HCl pH 7.4, 5 mM CaCl2, 5 mM MgCl2, 0.75% Empigen BB), and separated on concanavalin A-Sepharose following Rettig et al., supra. Any concanavalin A bound fractions were eluted with 0.25M methyl-α-D-mannopyranoside in elution buffer 0.15M NaCl,0.05M Tris-HCl, pH 7.4, 5 mM CaCl2, 5 mM MgCl2, 0.1% Triton X-100), mixed with zymography sample buffer (0.25M Tris-HCl, pH 6.8, 8% SDS, 40% glycerol, 0.01% bromophenol blue), at a 3:1 ratio, and used for further analysis.
Aliquots of sample were loaded onto polyacrylamide gels containing 0.1% of either of gelatin or casein. Electrophoresis was then carried out in a Biorad Mini-Protein II system,.at 20 mA constant current for 1.5-2 hours, until the bromophenol blue dye fronts of samples had reached the lower end of the gel. The gel was removed and incubated for one hour at 20-25° C. in a 2.5% aqueous solution of Triton X-100 on a rotary shaker. The Triton X-100 solution was decanted, and replaced with enzyme buffer (0.05M Tris-HCl, pH 7.5, 0.2M NaCl, 5 mM CaCl2, 5 mM MgCl2, 0.02% Brij 35). The gel was then incubated at 37° C. or 41° C., followed by staining or destaining at room temperature. Gels were stained with 0.5% of Coomassie Brilliant Blue G-250 in an aqueous solution of 30% methanol and 10% acetic acid for 15, 30, and 60 minutes, respectively. Subsequently, gels were incubated for 15 minutes in an aqueous solution of 30% CH3OH and 5% glycerol, followed by drying between sheets of cellophane.

[2] = target: fibroblast activation protein alpha (human) (UniProt Q12884); test: MHA rosetting assay on COS-1 cells transfected with pFAP.38
[3] = target: fibroblast activation protein alpha (human) (UniProt Q12884); test: MHA rosetting assay on SW872 liposarcoma cells
[4] = test system: casein; test: Casein zymography of 293-FAP cell extracts; assay type: biochemical; conditions: gel with 0.1% casein
Method: (§1) Extracts of 293-FAP cells were prepared, using an extraction buffer (0.15M NaCl, 0.05M Tris-HCl, pH 7.4, 10 mM MgCl2, 1 percent Triton X-114), were cleared by centrifugation (4,000×g, 10 minutes at […]), and phase partitioned at 37° C. for 10-20 minutes. This was followed by further centrifugation (4000×g, 20 minutes at 20-25° C.) Detergent phases were diluted with buffer (0.15M NaCl, 0.05M Tris-HCl pH 7.4, 5 mM CaCl2, 5 mM MgCl2, 0.75% Empigen BB), and separated on concanavalin A-Sepharose following Rettig et al., supra. Any concanavalin A bound fractions were eluted with 0.25M methyl-α-D-mannopyranoside in elution buffer 0.15M NaCl,0.05M Tris-HCl, pH 7.4, 5 mM CaCl2, 5 mM MgCl2, 0.1% Triton X-100), mixed with zymography sample buffer (0.25M Tris-HCl, pH 6.8, 8% SDS, 40% glycerol, 0.01% bromophenol blue), at a 3:1 ratio, and used for further analysis.
Aliquots of sample were loaded onto polyacrylamide gels containing 0.1% of either of gelatin or casein. Electrophoresis was then carried out in a Biorad Mini-Protein II system,.at 20 mA constant current for 1.5-2 hours, until the bromophenol blue dye fronts of samples had reached the lower end of the gel. The gel was removed and incubated for one hour at 20-25° C. in a 2.5% aqueous solution of Triton X-100 on a rotary shaker. […]

[5] = test system: gelatin; test: Gelatin zymography of 293-FAP cell extracts; assay type: biochemical; conditions: unboiled samples, approximately 170 kilodalton species
Method: as §1
Aliquots of sample were loaded onto polyacrylamide gels containing 0.1% of either of gelatin or casein. Electrophoresis was then carried out in a Biorad Mini-Protein II system,.at 20 mA constant current for 1.5-2 hours, until the bromophenol blue dye fronts of samples had reached the lower end of the gel. […]
Gelatinase activity was evaluated in accordance with Kleiner et al., Anal. Biochem. 218: 325-329 (1994), incorporated by reference in its entirety. […]

[6] = Membrane overlay assay for proteolytic activity; assay type: biochemical; conditions: Ala-Pro-, Gly-Pro-, Lys-Pro-7-amino-4-trifluoromethyl coumarin
Method: Proteolytic activity for defined amino acid sequence motifs were tested, using a well known membrane overlay assay. See Smith et al, Histochem. J. 24(9): 637-647 (1992), incorporated by reference. Substrates were Ala-Pro-7-amino-4-trifluoromethyl coumarin, Gly-Pro-7-amino-4-trifluoromethyl coumarin, and Lys-Pro-7-amino-4-trifluromethyl coumarin.

OCCS [2-mercaptoethanol]
effect on gelatin degrading enzymatic activity ([1]; 5% added to extracts prior to SDS-PAGE): None of these treatments abolished the enzymatic activity

O=C(O)CN(CCN(CC(=O)O)CC(=O)O)CC(=O)O [ethylenediamine N,N,N′,N′-tetraacetic acid]
effect on gelatin degrading enzymatic activity ([1]; 10 mM added to incubation buffer for gelatin zymography): None of these treatments abolished the enzymatic activity

NC(=O)CI [iodoacetamide]
effect on gelatin degrading enzymatic activity ([1]; 5 um added to extracts prior to SDS-PAGE): None of these treatments abolished the enzymatic activity

monoclonal antibody F19
Cell surface antigen expression (% positive cells) [2]: 40% | Cell surface antigen expression (% positive cells) [3]: > 95%

B1: FAPα: recombinant fibroblast activation protein alpha from 293-FAP cells, approximately 170 kilodalton dimeric species by SDS-PAGE of unboiled samples (protein)
chain: T1 sequence (Q12884 1-760 A207P/T229K/T354R)
proteolytic activity with casein as substrate [4]: not observed | gelatin degrading activity [5]: observed to have gelatin degrading activity | cleavage of dipeptide substrates [6]: able to cleave all of the Ala-Pro, Gly-Pro, and Lys-Pro dipeptides tested
